Patent US20250135039A1, “INHIBITOR-RESISTANT MGMT MODIFICATIONS AND MODIFICATION OF MGMT-ENCODING NUCLEIC ACIDS” (Ensoma, Inc., priority 2022, published 2025)
Residue numbers refer to the chain shown, from its start. Names and notes keep the numbering of the source.

B1: P140K: O^6BG-resistant MGMT polypeptide with K at position 140, SEQ ID NO: 8; used as control (protein)
chain: MDKDCEMKRTTLDSPLGKLELSGCEQGLHEIKLLGKGTSAADAVEVPAPAAVLGGPEPLMQCTAWLNAYFHQPEAIEEFPVPALHHPVFQQESFTRQVLWKLLKVVKFGEVISYQQLAALAGNPKAARAVGGAMRGNPVKILIPCHRVVCSSGAVGNYSGGLAVKEWLLAHEGHRLGKPGLGGSSGLAGAWLKGAGATSGSPPAGRN
modifications: REGION 1..207: note = Synthetic: MGMTP140K
notes: used as control
B2: L33F: MGMT polypeptide with mutation L33F (protein)
chain: B1 chain with L33F, K140P
B3: M134Y: MGMT polypeptide with mutation M134Y (protein)
chain: B1 chain with M134Y, K140P
B4: L33Y: MGMT polypeptide with mutation L33Y (protein)
chain: B1 chain with L33Y, K140P
B5: L33K: MGMT polypeptide with mutation L33K (protein)
chain: B1 chain with L33K, K140P
B6: L33R: MGMT polypeptide with mutation L33R (protein)
chain: B1 chain with L33R, K140P
B7: M134W: MGMT polypeptide with mutation M134W (protein)
chain: B1 chain with M134W, K140P
B8: L33W: MGMT polypeptide with mutation L33W (protein)
chain: B1 chain with L33W, K140P
B9: M134V: MGMT polypeptide with mutation M134V (protein)
chain: B1 chain with M134V, K140P
B10: L33P: MGMT polypeptide with mutation L33P (protein)
chain: B1 chain with L33P, K140P
B11: M134F: MGMT polypeptide with mutation M134F (protein)
chain: B1 chain with M134F, K140P

System: U251 human glioblastoma cell line
Assay: in vitro FM-HCR assay of MGMT activity (mPlum O^6MeG reporter plasmid)
Assay type: cell-based
Conditions: for Reporter expression (%) mean, O^6BG: 100 μM O^6BG; for Reporter expression (%) mean, O^6BG / Reporter expression (%) mean, DMSO: U251 cells, flow cytometry 24 h after transfection, damaged/undamaged reporter, inversely related to MGMT activity; for Reporter expression (%) mean, DMSO: 0.1% DMSO; for MGMT activity (a.u.) DMSO / MGMT activity (% of WT) DMSO: DMSO condition; for MGMT activity (a.u.) DMSO / MGMT activity (a.u.) O^6BG: determined from percent reporter expression; for MGMT activity (% of WT) DMSO / MGMT activity (% of WT) O^6BG: relative to wild-type MGMT in same condition; for Relative MGMT activity (%): MGMT activity (a.u.) in O^6BG divided by DMSO x 100, higher values indicate resistance; for MGMT activity (a.u.) O^6BG / MGMT activity (% of WT) O^6BG: O^6BG condition; for Ratio percent reporter expression (O^6BG/DMSO): lower values indicate resistance to O^6BG; for O^6BG resistance relative to WT (%): percentage difference in relative MGMT activity between variant and wild-type MGMT
Text: The present Example includes, in part, an in vitro fluorescence multiplex host cell reactivation (FM-HCR) assay in which a reporter plasmid with O^6MeG-containing oligonucleotides is used. The oligonucleotides induce transcription errors that lead to expression of fluorescent mPlum protein. Functional MGMT will repair the O^6MeG sites and reduce mPlum expression. This represents a rapid and validated assay system to assess intracellular activity of MGMT. Further description of certain such assays is found in Nagel (2014 PNAS USA 111 (18): E1823-32, which is incorporated herein by reference.
The present Example uses an in vitro FM-HCR assay in which a reporter plasmid with 0° MeG-containing oligonucleotides is used to assay MGMT activity in cells. The O^6MeG-containing oligonucleotides induce transcription errors that lead to expression of fluorescent mPlum protein. Functional MGMT will repair the O'MeG sites and reduce mPlum expression. This represents a rapid and validated assay system to assess intracellular activity of MGMT. Further description of certain such assays is found in Nagel et al., 2014 PNAS USA 111 (18): E1823-32 and Piett et al., 2021 Nat. Protoc. 16 (9): 4265-4298, each of which is incorporated herein by reference.
The in vitro FM-HCR assay was performed using the U251 human glioblastoma cell line. The cells were cultured in DMEM with 10% FBS and passaged every three days.
To express MGMT variants in the cells, plasmids encoding each MGMT variant were designed and generated by either de novo synthesis or cloning into the pTwist EF1 Alpha Puro vector at the HindII-BamHI multiple cloning site. The pTwist EF1 Alpha Puro plasmid vector drives expression of the MGMT transcript from a human EF1-alpha promoter including intron 1 and an SV40 polyadenylation signal. Plasmids encoding the MGMT variants were purified using standard molecular biology techniques from E. coli with low endotoxins. Plasmids encoding wild-type MGMT or O^6BG-resistant MGMT^P140K were also designed and generated for use as controls.
To perform the in vitro FM-HCR assay, U251 cells were seeded in 12-well plates at a density of 50,000 cells per well in 1 mL culture media. The following day, the media was changed to 1 mL of culture media containing O^6BG (100 μM O^6BG and 0.1% DMSO final) or 0.1% DMSO; and the cells were transfected with 1,000 ng of a plasmid cocktail using Lipofectamine 3000 (ThermoFisher Scientific) at 1.8 μL Lipofectamine 3000 Reagent and 2 μL P3000 reagent in Opti-MEM medium (ThermoFisher Scientific). […] For the “undamaged” condition, the plasmid cocktail replaced the mPlum O^6MeG reporter plasmid with 100 ng of a plasmid expressing mPlum. The plasmid encoding BFP was used as an internal transfection control. For transfections where no MGMT encoding plasmid is used (no pMGMT), 250 ng of additional carrier plasmid was used to maintain a total DNA amount of 1,000 ng in each transfection. Four hours after transfection, the transfection medium was changed.
All transfected cells were analyzed by flow cytometry at 24-hours after transfection. Data was analyzed as previously described in Nagel et al., 2014 PNAS USA 111 (18): E1823-32 and Piett et al., 2021 Nat. Protoc. 16 (9): 4265-4298. For each condition, normalized reporter expression was determined by taking the product of the mPlum-positive cell count and the mean mPlum fluorescence intensity in mPlum-positive cells and dividing it by the product of the BFP-positive cell count and the mean BFP fluorescence intensity in BFP-positive cells. Next, for each MGMT variant, the percent reporter expression was determined by taking the normalized reporter expression in the “damaged” condition and dividing it by the normalized reporter expression in the “undamaged” condition, and then multiplying by 100 to obtain a percent value. […]

Molecule | Reporter expression (%) mean, O^6BG | Reporter expression (%) mean, DMSO | MGMT activity (a.u.) DMSO | MGMT activity (% of WT) DMSO | Relative MGMT activity (%) | MGMT activity (a.u.) O^6BG | MGMT activity (% of WT) O^6BG | Ratio percent reporter expression (O^6BG/DMSO) | O^6BG resistance relative to WT (%)
B1 | 34.8% | 30.2% | 3.31 a.u. | 61.3 % of WT | 86.8% | 2.87 a.u. | 201.1 % of WT | 1.15 | 228.4%
B2 | 77.0% | 14.3% | 6.98 a.u. | 129.1 % of WT | 18.6% | 1.30 a.u. | 90.9 % of WT | 5.37 | −29.6%
B3 | 106.3% | 108.0% | 0.93 a.u. | 17.1 % of WT | 101.6% | 0.94 a.u. | 65.8 % of WT | 0.98 | 284.3%
B4 | 77.3% | 17.0% | 5.88 a.u. | 108.8 % of WT | 22.0% | 1.29 a.u. | 90.6 % of WT | 4.54 | −16.7%
B5 | 62.3% | 16.0% | 6.25 a.u. | 115.6 % of WT | 25.7% | 1.61 a.u. | 112.4 % of WT | 3.89 | −2.7%
B6 | 58.3% | 15.0% | 6.67 a.u. | 123.3 % of WT | 25.7% | 1.71 a.u. | 120.0 % of WT | 3.89 | −2.7%
B7 | 112.3% | 103.5% | 0.97 a.u. | 17.9 % of WT | 92.1% | 0.89 a.u. | 62.3 % of WT | 1.09 | 248.6%
B8 | 57.7% | 14.3% | 6.98 a.u. | 129.1 % of WT | 24.9% | 1.73 a.u. | 121.4 % of WT | 4.02 | −6.0%
B9 | 66.0% | 17.8% | 5.63 a.u. | 104.2 % of WT | 26.9% | 1.52 a.u. | 106.1 % of WT | 3.72 | 1.8%
B10 | 54.7% | 12.3% | 8.11 a.u. | 150.0 % of WT | 22.6% | 1.83 a.u. | 128.0 % of WT | 4.43 | −14.6%
B11 | 97.0% | 51.3% | 1.95 a.u. | 36.0 % of WT | 52.9% | 1.03 a.u. | 72.2 % of WT | 1.89 | 100.2%
